Assay results from PMC6075865.

Molecular target: preformed binary t-SNARE complex of Syx 1a (amino acids 1-262) and SNAP25 (amino acids 1-206), O35526
Test: SDS-resistant SNARE complex formation (SDS-PAGE without boiling, Coomassie staining); t-SNAREs preformed 1 hr (syntaxin 1 3 uM, SNAP25 15 uM), peptide (50 uM) or none added for 30 min, then GST-SybII (3 uM); 25 C; 100 mM NaCl, 1 mM DTT, 1 mM EDTA, 0.5% Triton X-100, 20 mM Tris pH 7.4; time …
Conditions: other: SDS-resistant SNARE complex formation (SDS-PAGE without boiling, Coomassie staining)

Sequence of preformed binary t-SNARE complex of Syx 1a (amino acids 1-262) and SNAP25 (amino acids 1-206), O35526 (O35526 whole entry, looked up, the tested form may be a part, one chain of several): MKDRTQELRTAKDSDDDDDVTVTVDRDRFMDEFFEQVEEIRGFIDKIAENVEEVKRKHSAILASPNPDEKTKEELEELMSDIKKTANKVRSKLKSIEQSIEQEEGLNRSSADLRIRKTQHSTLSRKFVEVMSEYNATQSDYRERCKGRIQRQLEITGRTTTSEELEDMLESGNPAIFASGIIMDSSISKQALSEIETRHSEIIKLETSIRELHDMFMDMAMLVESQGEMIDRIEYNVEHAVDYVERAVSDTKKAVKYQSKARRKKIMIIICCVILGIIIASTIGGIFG

B1: scrambled variant of the CpxII CTD peptide, in solution (peptide)
chain: KVPYELGGQLPELKTSDPIEGEDEDELFMKEIAC
amount of assembled SNARE complexes (m10 with m11) after 240 min with 50 uM peptide, % of control: scr-peptide 88.8 ± 9.6 | rate of SNARE complex assembly (m10 with m11) with 50 uM peptide, % of control: 106.6 ± 16.7% of control

B2: CpxII CTD peptide (amino acids 101-134), in solution (peptide)
chain: IPAGCGDEEEEEEESILDTVLKYLPGPLQDMFKK
amount of assembled SNARE complexes (m10 with m11) after 240 min with 50 uM peptide, % of control: CTD-peptide 92.3 ± 9.1 | rate of SNARE complex assembly (m10 with m11) with 50 uM peptide, % of control: 51.4 ± 3.8% of control
